Results as given in paper PMC4569848 (Nature Communications, 2015).
Substitutions are numbered along the chain they refer to. Names may count otherwise.

T1: GST-clathrin 1–494 (human, UniProt Q00610 1-494)
T1 construct: clathrin, human, residues 1-494, in pGEX-6P1; source: E. coli BL21, purified (glutathione-Sepharose 4B, eluted with GSH); not shown: GST, N-terminal, kept
T1 sequence (looked up): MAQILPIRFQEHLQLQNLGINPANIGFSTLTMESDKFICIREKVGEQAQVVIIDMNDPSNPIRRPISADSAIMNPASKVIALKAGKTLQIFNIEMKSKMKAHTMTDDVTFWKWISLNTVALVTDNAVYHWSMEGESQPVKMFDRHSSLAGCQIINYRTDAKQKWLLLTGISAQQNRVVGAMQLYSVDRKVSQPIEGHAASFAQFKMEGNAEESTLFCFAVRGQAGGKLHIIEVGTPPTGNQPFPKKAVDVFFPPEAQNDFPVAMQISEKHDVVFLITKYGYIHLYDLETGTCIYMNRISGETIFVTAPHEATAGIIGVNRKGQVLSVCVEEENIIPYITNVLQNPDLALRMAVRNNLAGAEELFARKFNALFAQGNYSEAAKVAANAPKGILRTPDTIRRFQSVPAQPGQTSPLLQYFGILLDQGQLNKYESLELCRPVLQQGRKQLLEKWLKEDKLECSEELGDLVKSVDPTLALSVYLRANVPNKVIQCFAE

B1: β-arrestin-1-K107-F2Y (natural protein, bovine, UniProt P17870 1-418, looked up)
chain: MGDKGTRVFKKASPNGKLTVYLGKRDFVDHIDLVEPVDGVVLVDPEYLKERRVYVTLTCAFRYGREDLDVLGLTFRKDLFVANVQSFPPAPEDKKPLTRLQERLIKYLGEHAYPFTFEIPPNLPCSVTLQPGPEDTGKACGVDYEVKAFCAENLEEKIHKRNSVRLVIRKVQYAPERPGPQPTAETTRQFLMSDKPLHLEASLDKEIYYHGEPISVNVHVTNNTNKTVKKIKISVRQYADICLFNTAQYKCPVAMEEADDTVAPSSTFCKVYTLTPFLANNREKRGLALDGKLKHEDTNLASSTLLREGANREILGIIVSYKVKVKLVVSRGGLLGDLASSDVAVELPFTLMHPKPKEEPPHREVPEHETPVDTNLIELDTNDDDIVFEDFARQRLKGMKDDKEEEEDGTGSPRLNDR
modifications: 3,5-difluorotyrosine (F2Y) at 107
notes: β-arrestin-1, bovine, full-length cDNA in pET22b, amber codon at K107 read as F2Y; source: E. coli BL21 (DE3) with pEVOL-F2YRS and F2Y in the medium, purified (Ni-NTA, gel filtration)
B2: β-arrestin-1-F277-F2Y (natural protein, bovine, UniProt P17870 1-418, looked up)
chain: B1 chain with Y107K, F277Y
modifications: 3,5-difluorotyrosine (F2Y) at 277
notes: β-arrestin-1, bovine, full-length cDNA in pET22b, amber codon at F277 read as F2Y; also called F2Y-F277; source: E. coli BL21 (DE3) with pEVOL-F2YRS and F2Y in the medium, purified (Ni-NTA, gel filtration)
B3: β-arrestin-1-K11-F2Y (natural protein, bovine, UniProt P17870 1-418, looked up)
chain: B1 chain with K11Y, Y107K
modifications: 3,5-difluorotyrosine (F2Y) at 11
notes: β-arrestin-1, bovine, full-length cDNA in pET22b, amber codon at K11 read as F2Y; source: E. coli BL21 (DE3) with pEVOL-F2YRS and F2Y in the medium, purified (Ni-NTA, gel filtration)
B4: β-arrestin-1-T136-F2Y (natural protein, bovine, UniProt P17870 1-418, looked up)
chain: B1 chain with Y107K, T136Y
modifications: 3,5-difluorotyrosine (F2Y) at 136
notes: β-arrestin-1, bovine, full-length cDNA in pET22b, amber codon at T136 read as F2Y; also called F2Y-T136; source: E. coli BL21 (DE3) with pEVOL-F2YRS and F2Y in the medium, purified (Ni-NTA, gel filtration)
B5: β-arrestin-1-D383-F2Y (natural protein, bovine, UniProt P17870 1-418, looked up)
chain: B1 chain with Y107K, D383Y
modifications: 3,5-difluorotyrosine (F2Y) at 383
notes: β-arrestin-1, bovine, full-length cDNA in pET22b, amber codon at D383 read as F2Y; source: E. coli BL21 (DE3) with pEVOL-F2YRS and F2Y in the medium, purified (Ni-NTA, gel filtration)
B6: β-arrestin-1-F388-F2Y (natural protein, bovine, UniProt P17870 1-418, looked up)
chain: B1 chain with Y107K, F388Y
modifications: 3,5-difluorotyrosine (F2Y) at 388
notes: β-arrestin-1, bovine, full-length cDNA in pET22b, amber codon at F388 read as F2Y; source: E. coli BL21 (DE3) with pEVOL-F2YRS and F2Y in the medium, purified (Ni-NTA, gel filtration)
B7: β-arrestin-1-L338-F2Y (natural protein, bovine, UniProt P17870 1-418, looked up)
chain: B1 chain with Y107K, L338Y
modifications: 3,5-difluorotyrosine (F2Y) at 338
notes: β-arrestin-1, bovine, full-length cDNA in pET22b, amber codon at L338 read as F2Y; also called F2Y-L338; source: E. coli BL21 (DE3) with pEVOL-F2YRS and F2Y in the medium, purified (Ni-NTA, gel filtration)
B8: β-arrestin-1-K294-F2Y (natural protein, bovine, UniProt P17870 1-418, looked up)
chain: B1 chain with Y107K, K294Y
modifications: 3,5-difluorotyrosine (F2Y) at 294
notes: β-arrestin-1, bovine, full-length cDNA in pET22b, amber codon at K294 read as F2Y; source: E. coli BL21 (DE3) with pEVOL-F2YRS and F2Y in the medium, purified (Ni-NTA, gel filtration)
B9: β-arrestin-1-N375-F2Y (natural protein, bovine, UniProt P17870 1-418, looked up)
chain: B1 chain with Y107K, N375Y
modifications: 3,5-difluorotyrosine (F2Y) at 375
notes: β-arrestin-1, bovine, full-length cDNA in pET22b, amber codon at N375 read as F2Y; also called F2Y-N375; source: E. coli BL21 (DE3) with pEVOL-F2YRS and F2Y in the medium, purified (Ni-NTA, gel filtration)
B10: β-arrestin-1-R7-F2Y (natural protein, bovine, UniProt P17870 1-418, looked up)
chain: B1 chain with R7Y, Y107K
modifications: 3,5-difluorotyrosine (F2Y) at 7
notes: β-arrestin-1, bovine, full-length cDNA in pET22b, amber codon at R7 read as F2Y; source: E. coli BL21 (DE3) with pEVOL-F2YRS and F2Y in the medium, purified (Ni-NTA, gel filtration)
B11: β-arrestin-1-V8-F2Y (natural protein, bovine, UniProt P17870 1-418, looked up)
chain: B1 chain with V8Y, Y107K
modifications: 3,5-difluorotyrosine (F2Y) at 8
notes: β-arrestin-1, bovine, full-length cDNA in pET22b, amber codon at V8 read as F2Y; source: E. coli BL21 (DE3) with pEVOL-F2YRS and F2Y in the medium, purified (Ni-NTA, gel filtration)
B12: β-arrestin-1-F75-F2Y (natural protein, bovine, UniProt P17870 1-418, looked up)
chain: B1 chain with F75Y, Y107K
modifications: 3,5-difluorotyrosine (F2Y) at 75
notes: β-arrestin-1, bovine, full-length cDNA in pET22b, amber codon at F75 read as F2Y; source: E. coli BL21 (DE3) with pEVOL-F2YRS and F2Y in the medium, purified (Ni-NTA, gel filtration)
B13: β-arrestin-1-K138-F2Y (natural protein, bovine, UniProt P17870 1-418, looked up)
chain: B1 chain with Y107K, K138Y
modifications: 3,5-difluorotyrosine (F2Y) at 138
notes: β-arrestin-1, bovine, full-length cDNA in pET22b, amber codon at K138 read as F2Y; source: E. coli BL21 (DE3) with pEVOL-F2YRS and F2Y in the medium, purified (Ni-NTA, gel filtration)
B14: β-arrestin-1 wild type (natural protein, bovine, UniProt P17870 1-418, looked up)
chain: B1 chain with Y107K
notes: β-arrestin-1, bovine, full-length wild-type cDNA in pET22b; also called β-arrestin-1-WT; WT; source: E. coli BL21, purified (Ni-NTA, Superdex 200)
B15: β-arrestin-1 (bovine, full-length wild type, C-terminal His tag) (natural protein, UniProt P17870 1-418, looked up)
chain: B1 chain with Y107K
notes: β-arrestin-1, bovine, full-length wild-type cDNA in pET22b; also called native β-arrestin-1; wild-type β-arrestin-1; source: E. coli BL21, purified (Ni-NTA, Superdex 200)

target: T1, GST-clathrin 1–494; test: pull-down; β-arrestin-1-F2Y mutants (300 nM) incubated with equal concentrations of GST-clathrin and V2R-phospho-peptide (V2Rpp), or without peptide; pulled down with GST beads; bound β-arrestin-1 detected by western blot with a β-arrestin-1 antibody; conditions: both partners purified

Row | binding result | Binder
1 | binds | B1
2 | binds | B2
3 | binds | B3
4 | binds | B4
5 | binds | B5
6 | binds | B6
7 | binds | B7
8 | binds | B8
9 | binds | B9
10 | binds | B10
11 | binds | B11
12 | binds | B12
13 | binds | B13

target: T1, GST-clathrin 1–494; test: pull-down; GST-clathrin pull-down of β-arrestin-1 with V2Rpp at protein:V2Rpp ratios 1:0, 1:0.03, 1:0.3, 1:3 and 1:9; western blot for β-arrestin-1, densitometry; conditions: both partners purified

Row | binding result | Binder
14 | binds | B14

target: T2, GST-SRC3D (SRC-SH2-SH3-kinase-three domain) (chicken, UniProt P00523 87-531); test: pull-down; GST pull-down; 300 nM β-arrestin-1 first mixed with phosphopeptide (equal concentration) 30 min at room temperature in 20 mM Tris-HCl pH 8.0, 150 mM NaCl, 2 mM EDTA, 1 mM DTT; then 10 μM GST-clathrin or GST-SRC 1 h; GST beads 2 h at 4 °C; blot with a β-arrestin-1 antibody; conditions: both partners purified
T2 construct: c-SRC, chicken, residues 87-531, containing SH3, SH2 and catalytic domains; source: E. coli BL21, purified (glutathione-Sepharose 4B, eluted with GSH); not shown: GST, N-terminal, kept

Row | binding result | Binder
15 | binds | B15
